Assay results taken from patent publication US20230287068A1, “KERATIN BD-6, PREPARATION METHOD THEREFOR AND PHARMACEUTICAL COMPOSITION AND USE THEREOF” (INSTITUTE OF MATERIAL MEDICA, CHINESE ACADEMY OF MEDICAL …, priority 2019, published 2023).

What was measured:
[1] = tested on: PLO-induced epilepsy in mice; assay: Pilocarpine (PLO) induced convulsive epilepsy in mice; assay type: in vivo, ICR mice; parameters: mortality rate: unit not given here; conditions: for Cases of deaths / Grade IV seizure rate / mortality rate / Cases of Grade IV / Grade II seizure incubation period / Grade III seizure incubation period / Grade IV seizure incubation period: PLO 225 mg/kg i.p.; for Cases of deaths / Grade IV seizure rate / mortality rate / Cases of Grade IV: 10 mice; for Cases of Grade IV: 30 min observation; for Grade II seizure incubation period / Grade III seizure incubation period / Grade IV seizure incubation period: mean±SEM; for Grade IV seizure incubation period: maximum 1800 seconds
Procedure: • Animals: male ICR mice; • Drugs: Pilocarpine HCl (PLO, pilocarpine, pilocarpine hydrochloride), Diazepam (diazepam tablets), protein BD-6. • Experiment grouping: • Model group: • Diazepam 2 mg/kg group; • Protein BD-6, 50 mg/kg group, 200 mg/kg group.
The drug was administered once in the afternoon the day before modeling, PLO-225 mg/kg (modeling agent) was injected intraperitoneally 1 hour after the test drug was administered intragastrically on the day of modeling. And positive drug can be administered once 20 minutes before modeling. Observe for 30 minutes after PLO injection.
Observation indicators: ①Seizure situation: the time of seizures from Grade II to Grade IV; ②the time to death.
Seizure grade: Refer to Racine grading standard: Grade 0: No response; Grade I: manifested as twitching of facial muscles or the corners of the mouth; Grade II: can nod; Grade III: twitching of one limb; Grade IV: rigidity or body twitching; Grade V: generalized epilepsy (generalized tonic seizures).
Count the number of Grade IV seizures and deaths in each group of mice in the experiment; Grade II, III and IV incubation period. […] Chi-square test was used for statistics of the number of cases. The mean value and standard error of the incubation period were calculated, and TTEST was used to compare the model group with other groups. P<0.05 was considered as a significant difference.

[2] = tested on: yeast-induced fever model in rats; assay: Yeast-induced fever model in SD rats; assay type: in vivo; conditions: for Body temperature 2 hours after modeling / Body temperature 4 hours after modeling / Body temperature 6 hours after modeling / Body temperature 8 hours after modeling: 20% yeast s.c., SD rats
Procedure: (§1) • Medicines: yeast (OXOID LP0021), aspirin (SIGMA A2093), protein BD-6; • Instruments: electronic balance (SARTORIUS BP121S type), electronic clinical thermometer (CITIZEN CT-513W type). • Experiment grouping: • Normal control group; • Model group: yeast fever model; • Positive control group: Aspirin 300 mg/kg group; • Protein BD-6, 10 mg/kg group, 50 mg/kg group.
(§2) Preparation of experimental animals: After the experimental animals adapt to the experimental environment (temperature 22° C.±2° C., relative humidity 50%±2%) for 1 day. Pre-adaptation to measure rectal temperature at 8:00 and 15:00, rats were fasted and water was taken freely 12 h before experiment, and let the animal to empty its feces before measuring the rectal temperature. Apply petroleum jelly to the electronic thermometer probe before each temperature measurement. Insert the rat rectum 2 cm (can be marked at 2 cm to ensure that the depth of each insertion is consistent), and record the body temperature after the reading is stable.
(§3) Subcutaneous injection of dry yeast to replicate rat fever model: The body temperature of the rats was measured before modeling. Qualified rats with a body temperature of 36.2-37.3° C. were selected and randomly divided into groups with 8 rats in each group. After oral administration of aspirin and different doses of protein BD-6, 20% yeast suspension (10 ml/kg) was injected subcutaneously immediately, and the normal control group was injected intraperitoneally with an equal volume of normal saline. The body temperatures of the rats were monitored after 2 hours for a total of 8 hours.
(§4) According to the body temperature measured at each time point on the day of the experiment, calculate the mean, standard deviation and standard error of the body temperature of each group of rats. The data of each group was compared with TTEST, and P<0.05 was considered as a significant difference.

[3] = tested on: lipopolysaccharide (LPS) induced fever model in rats; assay: Lipopolysaccharide (LPS) induced fever model in SD rats; assay type: in vivo; conditions: for Body temperature 2 hours after modeling / Body temperature 4 hours after modeling / Body temperature 6 hours after modeling / Body temperature 8 hours after modeling: LPS 20 µg/kg i.p., SD rats
Procedure: as §1, with “Animals: 230-260 grams of male SD rats; • Drugs: lipopolysaccharide (LPS, SIGMAL-2880),” for “Medicines: yeast (OXOID LP0021),”, “(SIGMAA2093),” for “(SIGMA A2093),”, “lipopolysaccharide” for “yeast”
Method: the method of intraperitoneal injection of Lipopolysaccharide to replicate rat fever model.
as §2
as §3, with “Intraperitoneal” for “Subcutaneous”, “lipopolysaccharide” for “dry yeast”, “lipopolysaccharide (20 µg/kg, 2” for “20% yeast suspension (10”, “intraperitoneally” for “subcutaneously”
as §4

B1: BD-6: recombinant keratin with the amino acid sequence SEQ ID NO:1, expressed in E. coli, about 45 kD; protein of Example 4 (protein, listed as Bos taurus)
chain: MTTTIRHFSSGSIKGSSGLAGGSSRSCRVSGSLGGGSCRLGSAGGLGSGLGGSSYSSCYSFGSGGSYGSGGYVSGGYGGGFGGVDGLLVGGEKATMQNLNDRLASYLDKVRALEEANTELELKIRDWYQKQAPGPAPDYSSYFKTIEDLRNKIHTATVDNANLLLQIDNARLAADDFRTKFETEQALRVSVEADINGLRRVLDELTLARADLEMQIENLKEELAYLRKNHEEEMKALRGQVGGEINVEMDAAPGVDLSRILNEMRDQYEKMAEKNRKDAEDWFFSKTEELNREVATNSELVQSGKSEISELRRTLQALEIELQSQLSMKASLEGSLAETENRYCMQLSQIQGLIGSVEEQLAQLRCEMEQQNQEYKILLDVKTRLEQEIATYRRLLEGEDAHLTQYKTKEPVTTRQVRTIVEEVQDGRVISSREQVHQTSH
Cases of deaths ([1]; BD-6 50 mg/kg intragastric): 0 | Grade IV seizure rate ([1]; BD-6 50 mg/kg intragastric): 40% | mortality rate ([1]; BD-6 50 mg/kg intragastric): 0 | Cases of Grade IV ([1]; BD-6 50 mg/kg intragastric): 4 | Grade II seizure incubation period ([1]; BD-6 50 mg/kg intragastric): 110±7^∗ s | Grade III seizure incubation period ([1]; BD-6 50 mg/kg intragastric): 169±9^∗ s | Grade IV seizure incubation period ([1]; BD-6 50 mg/kg intragastric): 1439±155^∗ s | Incubation period of epilepsy Grade II, III and IV vs model group (in words) ([1]; BD-6 50 mg/kg, PLO model): statistically different from the model group | Cases of deaths ([1]; BD-6 200 mg/kg intragastric): 0 | Grade IV seizure rate ([1]; BD-6 200 mg/kg intragastric): 50% | mortality rate ([1]; BD-6 200 mg/kg intragastric): 0 | Cases of Grade IV ([1]; BD-6 200 mg/kg intragastric): 5 | Grade II seizure incubation period ([1]; BD-6 200 mg/kg intragastric): 99 ± 6 s | Grade III seizure incubation period ([1]; BD-6 200 mg/kg intragastric): 157 ± 8 s | Grade IV seizure incubation period ([1]; BD-6 200 mg/kg intragastric): 1279 ± 181 s | Body temperature 2 hours after modeling ([2]; BD-6 10 mg/kg oral): 37.0±0.1 °C | Body temperature 4 hours after modeling ([2]; BD-6 10 mg/kg oral): 37.4±0.1 °C | Body temperature 6 hours after modeling ([2]; BD-6 10 mg/kg oral): 37.3±0.09 °C | Body temperature 8 hours after modeling ([2]; BD-6 10 mg/kg oral): 37.5±0.1 °C | Body temperature 2 hours after modeling ([2]; BD-6 50 mg/kg oral): 37.0±0.2 °C | Body temperature 4 hours after modeling ([2]; BD-6 50 mg/kg oral): 37.4±0.1 °C | Body temperature 6 hours after modeling ([2]; BD-6 50 mg/kg oral): 37.4±0.1 °C | Body temperature 8 hours after modeling ([2]; BD-6 50 mg/kg oral): 37.3±0.1 °C | Effect on increase in body temperature (in words) ([2]; BD-6 10 and 50 mg/kg, most time points after modeling, P<0.05 vs model group): can inhibit the increase in body temperature of model rats to varying degrees | Body temperature 2 hours after modeling ([3]; BD-6 10 mg/kg oral): 37.1±0.2 °C | Body temperature 4 hours after modeling ([3]; BD-6 10 mg/kg oral): 37.4±0.2 °C | Body temperature 6 hours after modeling ([3]; BD-6 10 mg/kg oral): 37.3±0.2 °C | Body temperature 8 hours after modeling ([3]; BD-6 10 mg/kg oral): 37.2±0.2 °C | Body temperature 2 hours after modeling ([3]; BD-6 50 mg/kg oral): 37.2±0.1 °C | Body temperature 4 hours after modeling ([3]; BD-6 50 mg/kg oral): 37.5±0.2 °C | Body temperature 6 hours after modeling ([3]; BD-6 50 mg/kg oral): 37.4±0.2 °C | Body temperature 8 hours after modeling ([3]; BD-6 50 mg/kg oral): 37.4±0.2 °C | Effect on body temperature (in words) ([3]; BD-6 10 and 50 mg/kg, 2 hours after modeling, P<0.05 vs model group): can reduce the body temperature of the model rats to different degrees
